Source: article PMC9636964 (Proceedings of the National Academy of Sciences of the …, 2022)

Tests used:
[1] = biological target: T1, G3BP1 NTF2L (nuclear transport factor 2-like domain of Ras-GTPase-activating protein binding protein (human, UniProt Q13283 1-139)); test: ITC
[2] = biological target: T1, G3BP1 NTF2L (nuclear transport factor …); test: NMR titration

T1 sequence (Q13283 1-139): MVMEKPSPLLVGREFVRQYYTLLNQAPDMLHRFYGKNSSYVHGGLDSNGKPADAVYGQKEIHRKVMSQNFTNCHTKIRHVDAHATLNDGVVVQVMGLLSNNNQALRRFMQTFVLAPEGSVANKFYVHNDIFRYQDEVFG

Kd [1]	binding result [2]	Binder
1300 nM		VAQADPLVRRQRVQDLMAQMQGPYNFIQDSMLDFENQTLD [Caprin-1(347-386) peptide]
	binds	Caprin-1(330-432) (domain or fragment, 15N-labeled) QPQAASPSVPEPHSLTPVAQADPLVRRQRVQDLMAQMQGPYNFIQDSMLDFENQTLDPAIVSAQPMNPTQNMDMPQLVCPPVHSESRLAQPNQVPVQPEATQV
